Data as given in US20180112000A1 (MILTENYI BIOTEC, published 2018).

Experiments:
[1] = biological target: T1, recombinant CD28 antigen (extracellular domain, expressed in mammalian cells) (UniProt P10747 19-152, limits assumed); assay: SPR (Biacore), CD28 ECD on CM5 chip, Fab as analyte at 50 ug/mL, 1:1 binding mass transfer model
T1 construct: extracellular domain; Immobilized on a CM5 chip by amine coupling; also called T-cell-specific surface glycoprotein CD28
Protocol: (§1) Therefore, recombinant CD28 antigen (extracellular domain, expressed in mammalian cells) was immobilized on a CM5 chip by standard amine coupling. The Fab variants were used as analytes in HBS-EP buffer (0.01 M HEPES pH 7.4, 0.15 M NaCl, 3 mM EDTA, 0.005% v/v Surfactant P20) in a concentration of 50 μg/mL. Evaluation was conducted with the BIAeval Software using an 1:1 binding mass transfer model.

[2] = biological target: T1, recombinant CD28 antigen (extracellular …); assay: SPR (Biacore), CD28 ECD on CM5 chip, Fab as analyte
Protocol: as §1

Binder	Kd [1] [nM]	koff [1] [s⁻¹]	kon [1] [M⁻¹ s⁻¹]	affinity [%] (by KD, chCD28 Fab set to 100%) [2]
huCD28_v4 Fab (humanized) (Fab, V domains shown, not shown: small tags and cut ends, Humanized 15E8 Fab expressed in E. coli periplasm) VH: QVQLQESGPGLVKPSETLSLTCTVSGFSLTSYGVHWIRQPPGKGLEWLGVIWAGGSTNYNSSLKSRVTISKDTSKNQVSLKLSSVTAADTAVYYCARDKRAPGKLYYGYPDYWGQGTTLTVSS VL: DIVMTQSPDSLAVSLGERATINCRASESVEYYVTSLMQWYQQKPGQPPKLLIYAASNVESGVPARFSGSGSGTDFTLTISPLQAEDVAVYYCQQTRKVPSTFGGGTKLEIKR	53	0.021	400000	60
huCD28_v3 Fab (humanized) (Fab, V domains shown, not shown: small tags and cut ends, Humanized 15E8 Fab expressed in E. coli periplasm) VH: QVQLQESGPGLVKPSETLSLTCTVSGFSLTSYGVHWIRQPPGKGLEWLGVIWAGGSTNYNSSLKSRVTISKDTSKNQVFLKLSSVTADDTAVYYCARDKRAPGKLYYGYPDYWGQGTTLTVSS VL: DIVMTQSPDSLAVSLGERATINCRASESVEYYVTSLMQWYQQKPGQPPKLLIYAASNVESGVPARFSGSGSGTDFTLTISPLQAEDVAVYYCQQTRKVPSTFGGGTKLEIKR	52	0.026	500000	62
chCD28 Fab (chimeric) (Fab, V domains shown, Fab expressed in E. coli periplasm; not shown: Fabs were purified by IMAC) VH: QVQLKESGPGLVAPSQSLSITCTVSGFSLTSYGVHWVRQPPGKGLEWLGVIWAGGSTNYNSALMSRLSISKDNSKSQVFLKMNSLQTDDTAMYYCARDKRAPGKLYYGYPDYWGQGTTLTVSS VL: DIVLTQSPASLAVSLGQRATISCRASESVEYYVTSLMQWYQQKPGQPPKLLIYAASNVESGVPARFSGSGSGTDFSLNIHPVEEDDIAMYFCQQTRKVPSTFGGGTKLEIKR	32	0.032	1e+06	100

More lines, in order of falling Kd [1], values ahead:

Kd [1] [nM]	koff [1] [s⁻¹]	kon [1] [M⁻¹ s⁻¹]	affinity [%] (by KD, chCD28 Fab set to 100%) [2]	Binder
92	0.055	600000	35	huCD28_v2 Fab (humanized) (Fab, V domains shown, not shown: small tags and cut ends, Humanized 15E8 Fab expressed in E. coli periplasm) VH: QVQLQESGPGLVKPSETLSLTCTVSGFSLTSYGVHWVRQPPGKGLEWIGVIWAGGSTNYNPSLKSRVTISKDTSKNQFSLKLSSVTAADTAVYYCARDKRAPGKLYYGYPDYWGQGTTLTVSS VL: DIVMTQSPDSLAVSLGERATINCKSSESVEYYVTSLLQWYQQKPGQPPKLLIYAASNRESGVPDRFSGSGSGTDFTLTISSLQAEDVAVYYCQQTRKVPSTFGGGTKLEIKR
42	0.08	1.9e+06	76	huCD28_v1 Fab (humanized) (Fab, V domains shown, not shown: small tags and cut ends, Humanized 15E8 Fab expressed in E. coli periplasm) VH: QVQLQESGPGLVKPSETLSLTCTVSGFSLTSYGVHWVRQPPGKGLEWLGVIWAGGSTNYNSALMSRLTISKDTSKNQVSLKLSSVTAADTAVYYCARDKRAPGKLYYGYPDYWGQGTTLTVSS VL: DIVMTQSPDSLAVSLGERATINCRASESVEYYVTSLMQWYQQKPGQPPKLLIYAASNVESGVPDRFSGSGSGTDFTLTISSLQAEDVAVYYCQQTRKVPSTFGGGTKLEIKR
